Holding throughout (assay): BLI (Octet RED96), target on sensor, monobody in five 2-fold dilutions
(BLI is a label-free optical method that tracks binding on a fibre tip over time.)

Test [1] concerns the target T1, Biotinylated Human NKp46/NCR/CD335 Protein, Fc, Avitag (NC1-H82F9) (human, UniProt O76036 22-255, biotinylated (Avitag)).
T1 construct: Bought from ACROBiosystems, catalog NC1-H82F9; not shown: Fc and Avitag of the purchased protein
Here is the method:
(§1) The binding abilities and specificities were examined by using an Octet® RED96 (ForteBio) with bio-layer interferometry. Measurement was performed with the following program: Dip for 50 seconds, Load for x seconds (until a signal of 1.0 nm (NKp46, 2B4) or 0.8 nm (Nkp30) was reached), Baseline for 60 seconds, Association for 600 seconds, and Dissociation for 600 seconds. At that time, the monobody concentrations were equally set to 40 nM. The acquired data were analyzed with ForteBio Data Analysis 10.0. Only samples for which binding ability and specificity were found were subjected to measurement of dissociation constants under different conditions. The measurement conditions are shown in a table given below. Dip, Baseline, Association, and Dissociation were performed for the same times as in examining binding ability and specificity. The monobodies were serially diluted from the highest concentration by a factor of 2 to prepare five concentrations for use in measurement.
(§2) The binding abilities and specificities of all the clones expressed and purified in Example 3 were examined, and the values of dissociation constants were measured. FIGS. 5 to 7 show the measurement results. In the top graphs in each of FIGS. 5 to 7, upper lines show results of measurement of the binding abilities of the monobodies with binding of a target to the tip of the sensor, and lower lines show results of examination on whether a monobody was bound only to the sensor without binding of a target to the sensor. Mb in the graphs is an abbreviation for monobody concentration. For any of the clones, the monobody was bound to the sensor when a target was fixed on the sensor, and no binding was found when a target was not fixed on the sensor. The bottom graphs in each of FIGS. 5 to 7 show results of measurement of dissociation constants for five concentrations.

For test [2], the target named is T2, Human NKp30/NCR3/CD337 Protein, Fc Tag (NC3-H5259) (human, UniProt O14931 19-135).
T2 construct: Bought from ACROBiosystems, catalog NC3-H5259; not shown: Fc tag of the purchased protein
T2 sequence (looked up): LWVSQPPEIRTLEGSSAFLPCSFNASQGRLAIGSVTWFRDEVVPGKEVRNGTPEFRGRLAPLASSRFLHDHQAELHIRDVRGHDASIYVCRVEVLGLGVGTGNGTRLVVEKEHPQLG
As for the experimental part:
as §1, §2

Test [3] has as its target T3, Biotinylated Human 2B4/CD244/SLAMF4 Protein, Fc, Avitag (2B4-H82F0) (human, UniProt Q9BZW8-2 22-221, biotinylated (Avitag)).
T3 construct: Bought from ACROBiosystems, catalog 2B4-H82F0; not shown: Fc and Avitag of the purchased protein
T3 sequence (looked up): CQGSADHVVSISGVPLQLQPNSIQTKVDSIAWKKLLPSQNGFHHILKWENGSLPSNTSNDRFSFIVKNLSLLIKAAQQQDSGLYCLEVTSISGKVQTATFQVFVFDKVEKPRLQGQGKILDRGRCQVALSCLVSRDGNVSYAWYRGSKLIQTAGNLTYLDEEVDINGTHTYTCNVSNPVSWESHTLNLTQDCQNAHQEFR
Here is the method:
as §1, §2

Test [4] deals with T4, Biotinylated Human 2B4/CD244/SLAMF4 Protein, Fc, Avitag (2B4-H82F0) (human) (UniProt Q9BZW8).
T4 sequence (biotinylated (Avitag), looked up): T3 sequence (looked up)

T1 sequence (O76036 22-255): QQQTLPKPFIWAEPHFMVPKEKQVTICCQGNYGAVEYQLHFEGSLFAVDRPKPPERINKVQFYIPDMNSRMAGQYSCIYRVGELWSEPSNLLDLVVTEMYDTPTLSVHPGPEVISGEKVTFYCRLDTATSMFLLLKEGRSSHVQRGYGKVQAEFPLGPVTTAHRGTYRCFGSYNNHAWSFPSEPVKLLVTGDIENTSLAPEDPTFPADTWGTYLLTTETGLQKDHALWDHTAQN

B1: Mb-NKp46-CD-3 (designed binder)
chain: LEVVEASPTSIQISWDAPAVTVRYYVISYGETGRYKYHRRINVQGFTVPGSKSTATISGLKPGVDYTITVYAVTGTQWYVFNEAGDVAGYPISINYRTEIDKPSQ
notes: Monobody on human fibronectin type III domain scaffold, CD-FG library; also called NKp46 CD-FG No. 3; not shown: N-terminal residues of the expression construct (X7n7; the library has MPNR), linker, Sortase A recognition site and His tag
Turning to B1, in test [1], binding was put at a Kd of 980 pM, the koff is 7e-05 s⁻¹ and the kon worked out at 72000 M⁻¹ s⁻¹.

B2: Mb-NKp46-BC-2 (designed binder)
chain: LEVVEASPTSIQISWDAWTWLGYEYYWVRYYRITYGETGGNSPVQEFTVPGSKSTATISGLKPGVDYTITVYAVTWDSKPGAIGIPISINYRTEIDKPSQ
notes: Monobody on human fibronectin type III domain scaffold, BC-FG library; also called NKp46 BC-FG No. 2; not shown: N-terminal residues of the expression construct (X7n7; the library has MPNR), linker, Sortase A recognition site and His tag
In test [1], B2 yielded a Kd of 1200 pM, a koff of 0.00047 s⁻¹ and a kon of 380000 M⁻¹ s⁻¹.

B3: Mb-NKp46-BC-3 (designed binder)
chain: LEVVEASPTSIQISWDATYWDWGFRVRYYRITYGETGGNSPVQEFTVPGSKSTATISGLKPGVDYTITVYAVTWSWARRTHISWFPISINYRTEIDKPSQ
notes: Monobody on human fibronectin type III domain scaffold, BC-FG library; also called NKp46 BC-FG No. 3; not shown: N-terminal residues of the expression construct (X7n7; the library has MPNR), linker, Sortase A recognition site and His tag
In test [1], B3 registered a Kd below 10 pM, a koff below 1e-06 s⁻¹ and a kon of 100000 M⁻¹ s⁻¹.

B4: Mb-NKp30-BC-6 (designed binder)
chain: LEVVEASPTSIQISWDATDRNYDITYGMQVRYYRITYGETGGNSPVQEFTVPGSKSTATISGLKPGVDYTITVYAVTYWWDGYSYSEEAWYYPISINYRTEIDKPSQ
notes: Monobody on human fibronectin type III domain scaffold, BC-FG library; also called NKp30 BC-FG No. 6; not shown: N-terminal residues of the expression construct (X7n7; the library has MPNR), linker, Sortase A recognition site and His tag
Turning to B4, in test [2], the Kd turned out to be 270 pM, the off-rate constant (koff) is 0.00024 s⁻¹ and the kon is 900000 M⁻¹ s⁻¹.

B5: Mb-2B4-CD-3 (designed binder)
chain: LEVVEASPTSIQISWDAPAVTVRYYEILYGETGTPPWIHKGWVQYFTVPGSKSTATISGLKPGVDYTITVYAVTVTPYGRKWVGMNGWPISINYRTEIDKPSQ
notes: Monobody on human fibronectin type III domain scaffold, CD-FG library; also called 2B4 CD-FG No. 3; not shown: Sortase A recognition site, His tag and any linker (X8n8) at the C terminus; MPNR in the library
In the case of B5, in test [3], the affinity, expressed as Kd, was 1500 pM; the koff is 0.00035 s⁻¹; the on-rate constant (kon) amounted to 230000 M⁻¹ s⁻¹.

B6: Mb-NKp30-CD-9 (designed binder)
chain: LEVVEASPTSIQISWDAPAVTVRYYVITYGETGWSWESYWHGTYVQQFTVPGSKSTATISGLKPGVDYTITVYAVTTFMKDIPSYYPISINYRTEIDKPSQ
notes: Monobody on human fibronectin type III domain scaffold, CD-FG library; also called NKp30 CD-FG No. 9; not shown: N-terminal residues of the expression construct (X7n7; the library has MPNR), linker, Sortase A recognition site and His tag
In test [2], B6 showed a dissociation constant Kd of 350 pM, an off-rate (koff) of 0.00029 s⁻¹ and an on-rate constant (kon) of 810000 M⁻¹ s⁻¹.

B7: Mb-NKp30-BC-2 (designed binder)
chain: LEVVEASPTSIQISWDALWHYYGDQYWVRYYRITYGETGGNSPVQEFTVPGSKSTATISGLKPGVDYTITVYAVTWMYVPEYYFNPWPISINYRTEIDKPSQ
notes: Monobody on human fibronectin type III domain scaffold, BC-FG library; also called NKp30 BC-FG No. 2; not shown: N-terminal residues of the expression construct (X7n7; the library has MPNR), linker, Sortase A recognition site and His tag
In test [2], B7 returned a Kd of 38 pM, a koff of 2.7e-05 s⁻¹ and a kon of 720000 M⁻¹ s⁻¹.

B8: Mb-2B4-BC-2 (designed binder, part only; not given: N-terminal start, linker, sortase site, tag, not shown: small tags and cut ends)
chain, part: LEVVEASPTSIQISWDAQAYWFEYTWWVRYYRITYGETGGNSPVQEFTVPGSKSTATISGLKPGVDYTITVYAVTLEWVYDDQWTSGPISINYRTEIDKPSQ
As to B8, in test [4], the Kd amounted to 1000 pM, the off-rate (koff) was determined as 9.3e-05 s⁻¹ and the kon stood at 92000 M⁻¹ s⁻¹.

B9: Mb-NKp46-CD-1 (designed binder)
chain: LEVVEASPTSIQISWDAPAVTVRYYDIYYGETGPGYYMWQRGVINVQAFTVPGSKSTATISGLKPGVDYTITVYAVTGQERAYGHPEHFPISINYRTEIDKPSQ
notes: Monobody on human fibronectin type III domain scaffold, CD-FG library; also called NKp46 CD-FG No. 1; not shown: N-terminal residues of the expression construct (X7n7; the library has MPNR), linker, Sortase A recognition site and His tag
For the molecule B9, in test [1], the Kd was 140 pM, the koff is 7.2e-05 s⁻¹ and the kon was determined as 530000 M⁻¹ s⁻¹.

B10: Mb-2B4-CD-1 (designed binder)
chain: LEVVEASPTSIQISWDAPAVTVRYYGIYYGETGTSPWVYNGYVQEFTVPGSKSTATISGLKPGVDYTITVYAVTDQYKSWNLEEFHPISINYRTEIDKPSQ
notes: Monobody on human fibronectin type III domain scaffold, CD-FG library; also called 2B4 CD-FG No. 1; not shown: Sortase A recognition site, His tag and any linker (X8n8) at the C terminus; MPNR in the library
In test [3], B10 returned a Kd of 2800 pM, a koff of 0.0002 s⁻¹ and a kon of 71000 M⁻¹ s⁻¹.

The Kd is the free concentration of one partner at which half of the binding sites on the other are occupied at equilibrium, for simple one-to-one binding. A word on the koff: it is the rate constant with which the complex falls apart. One may read the kon as the second-order rate constant of association. Read a high kon as fast association.

Values taken from patent US20260071182A1 (GAIA BIOMEDICINE, published 2026).
